Paper PMC8728441, “Biosynthesis of the redox cofactor mycofactocin is controlled by the transcriptional regulator MftR and induced by long-chain acyl-CoA species” (The Journal of Biological Chemistry, 2021)

T1: MftR WT (Mycobacterium smegmatis mc2155, UniProt A0QSB5 1-200)
T1 sequence: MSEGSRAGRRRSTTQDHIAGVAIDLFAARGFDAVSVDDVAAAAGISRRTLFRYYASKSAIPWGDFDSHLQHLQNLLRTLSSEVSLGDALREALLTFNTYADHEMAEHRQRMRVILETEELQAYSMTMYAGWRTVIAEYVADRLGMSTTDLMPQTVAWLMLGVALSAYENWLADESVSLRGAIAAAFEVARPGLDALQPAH

T2: MftR H68A (Mycobacterium smegmatis mc2155, UniProt A0QSB5 1-200, H68A)
T2 sequence: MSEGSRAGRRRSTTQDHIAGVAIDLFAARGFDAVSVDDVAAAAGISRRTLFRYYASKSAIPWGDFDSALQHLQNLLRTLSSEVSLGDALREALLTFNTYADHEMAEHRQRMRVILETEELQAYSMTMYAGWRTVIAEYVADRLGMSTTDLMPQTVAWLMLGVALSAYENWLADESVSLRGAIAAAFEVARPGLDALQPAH

T3: MftR D16R (Mycobacterium smegmatis mc2155, UniProt A0QSB5 1-200, D16R)
T3 sequence: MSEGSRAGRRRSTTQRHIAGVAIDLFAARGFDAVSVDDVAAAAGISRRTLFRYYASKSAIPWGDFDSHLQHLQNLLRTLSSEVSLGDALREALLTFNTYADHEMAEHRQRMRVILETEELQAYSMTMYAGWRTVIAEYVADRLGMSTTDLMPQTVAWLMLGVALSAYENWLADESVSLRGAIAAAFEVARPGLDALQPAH

T4: MftR M127A (Mycobacterium smegmatis mc2155, UniProt A0QSB5 1-200, M127A)
T4 sequence: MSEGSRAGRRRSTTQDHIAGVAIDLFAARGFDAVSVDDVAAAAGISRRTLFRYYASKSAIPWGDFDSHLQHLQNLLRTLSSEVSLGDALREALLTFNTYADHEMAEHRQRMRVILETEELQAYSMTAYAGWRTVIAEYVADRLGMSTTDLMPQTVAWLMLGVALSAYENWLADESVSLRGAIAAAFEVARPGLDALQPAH

T5: MftR R29A (Mycobacterium smegmatis mc2155, UniProt A0QSB5 1-200, R29A)
T5 sequence: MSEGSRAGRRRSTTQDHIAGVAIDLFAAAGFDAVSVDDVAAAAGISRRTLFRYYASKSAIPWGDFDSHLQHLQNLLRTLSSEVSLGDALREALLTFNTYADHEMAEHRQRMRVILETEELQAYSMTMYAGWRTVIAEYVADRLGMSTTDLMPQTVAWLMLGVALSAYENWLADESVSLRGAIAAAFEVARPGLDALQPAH

T6: MftR D38A (Mycobacterium smegmatis mc2155, UniProt A0QSB5 1-200, D38A)
T6 sequence: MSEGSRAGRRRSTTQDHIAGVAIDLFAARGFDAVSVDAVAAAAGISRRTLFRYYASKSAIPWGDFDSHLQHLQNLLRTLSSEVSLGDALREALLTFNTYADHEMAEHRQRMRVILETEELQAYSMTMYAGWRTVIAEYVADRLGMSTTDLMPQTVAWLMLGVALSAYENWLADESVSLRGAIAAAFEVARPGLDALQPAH

T7: MftR L120R (Mycobacterium smegmatis mc2155, UniProt A0QSB5 1-200, L120R)
T7 sequence: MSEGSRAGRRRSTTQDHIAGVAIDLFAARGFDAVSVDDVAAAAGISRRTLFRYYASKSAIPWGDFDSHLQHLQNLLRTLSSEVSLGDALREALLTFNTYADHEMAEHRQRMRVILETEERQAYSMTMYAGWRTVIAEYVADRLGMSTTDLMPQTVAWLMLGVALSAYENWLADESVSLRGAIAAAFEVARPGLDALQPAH

T8: MftR R48A (Mycobacterium smegmatis mc2155, UniProt A0QSB5 1-200, R48A)
T8 sequence: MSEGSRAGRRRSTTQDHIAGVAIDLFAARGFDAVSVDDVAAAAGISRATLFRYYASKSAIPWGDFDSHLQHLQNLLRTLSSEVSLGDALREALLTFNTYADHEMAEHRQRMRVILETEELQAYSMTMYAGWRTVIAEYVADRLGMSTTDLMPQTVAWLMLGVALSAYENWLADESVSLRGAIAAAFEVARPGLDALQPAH


Key:
MftR WT [1] = target: T1, MftR WT; test: EMSA; details: EMSA: 50 mM Hepes, 50 mM NaCl, 0.1 mM EDTA, pH 7.5, room temperature 10 min, 5% PAGE in 1x TBE on ice; footprinting: 30 C 30 min; FP conditions not in material.
MftR H68A = target: T2, MftR H68A; test: EMSA; 100 uM oleoyl-CoA; EMSA: 50 mM Hepes, 50 mM NaCl, 0.1 mM EDTA, pH 7.5, room temperature 10 min, 5% PAGE in 1x TBE on ice; footprinting: 30 C 30 min; FP conditions not in material. Text fold changes for R29A/R48A and L120R/M127A are swapped relative to Table 2; table values used; details: protein: recombinant; tags: His-tag (pET-28a); chain copies: 2; label: 6-FAM; blunt
MftR D16R = target: T3, MftR D16R; test: as above; details: protein: recombinant; tags: His-tag (pET-28a); chain copies: 2; label: 6-FAM; blunt
MftR M127A = target: T4, MftR M127A; test: fluorescence polarization; EMSA: 50 mM Hepes, 50 mM NaCl, 0.1 mM EDTA, pH 7.5, room temperature 10 min, 5% PAGE in 1x TBE on ice; footprinting: 30 C 30 min; FP conditions not in material. Text fold changes for R29A/R48A and L120R/M127A are swapped relative to Table 2; table values used; details: protein: recombinant; tags: His-tag (pET-28a); chain copies: 2; label: 6-FAM; blunt
MftR R29A = target: T5, MftR R29A; test: as above; details: protein: recombinant; tags: His-tag (pET-28a); chain copies: 2; label: 6-FAM; blunt
MftR D38A = target: T6, MftR D38A; test: as above; details: protein: recombinant; tags: His-tag (pET-28a); chain copies: 2; label: 6-FAM; blunt
MftR L120R = target: T7, MftR L120R; test: as above; details: protein: recombinant; tags: His-tag (pET-28a); chain copies: 2; label: 6-FAM; blunt
MftR R48A = target: T8, MftR R48A; test: as above; details: protein: recombinant; tags: His-tag (pET-28a); chain copies: 2; label: 6-FAM; blunt
MftR WT [2] = target: T1, MftR WT; test: as above; details: protein: recombinant; tags: His-tag (pET-28a, NdeI/XhoI); chain copies: 2; label: 6-FAM; blunt

| Molecule | Kd (MftR WT [1]) [µM] | binding result (MftR H68A) | binding result (MftR D16R) | Kd (MftR M127A) [µM] | Kd (MftR R29A) [µM] | binding result (MftR D38A) | Kd (MftR L120R) [µM] | Kd (MftR R48A) [µM] | Kd (MftR WT [2]) [µM] |
| --- | --- | --- | --- | --- | --- | --- | --- | --- | --- |
| Pmft | 0.6 |  |  |  |  |  |  |  |  |
| FAM-Omft (dsDNA) DNA 1: TCCATTCTGGCACTCGATGCCATATAT DNA 2: ATATATGGCATCGAGTGCCAGAATGGA |  | binds | binds | 13 ± 6 | 20.5 ± 2 | no binding | 28 ± 6 | 13 ± 1.1 | 1.3 ± 0.6 |
